According to patent publication US20210340249A1, “MUSCARINIC ACETYLCHOLINE RECEPTOR BINDING AGENTS AND USES THEREOF” (VIB VZW, priority 2013, published 2021):
Entries after “also recorded” stand apart in the source; their conditions may differ.

T1: human M2 muscarinic receptor (Homo sapiens, UniProt P08172, DEL233-374/N2D/N3D/N6D/N9D)
T1 construct: FLAG (N); 8xHis (C); made in house; host or cells: Sf9 insect cells, BestBac baculovirus system
T1 sequence (P08172 with tags, fused parts or gaps N2D/N3D/N6D/N9D/DEL233-374): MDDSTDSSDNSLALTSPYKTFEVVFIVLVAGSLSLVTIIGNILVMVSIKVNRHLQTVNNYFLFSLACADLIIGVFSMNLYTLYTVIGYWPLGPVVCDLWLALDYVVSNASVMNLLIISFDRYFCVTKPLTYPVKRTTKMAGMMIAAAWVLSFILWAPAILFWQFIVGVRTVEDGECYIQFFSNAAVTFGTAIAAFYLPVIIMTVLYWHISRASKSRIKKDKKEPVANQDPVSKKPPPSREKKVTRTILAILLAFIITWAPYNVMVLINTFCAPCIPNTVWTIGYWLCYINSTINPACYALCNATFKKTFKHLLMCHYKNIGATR

B1: Nb9-1: Nanobody SEQ ID NO:2; M2 Gi mimetic (protein, listed as Lama glama)
VHH: QVQLQESGGGLVQAGGSLRLSCAASGHTFSSARMYWVRQAPGKEREFVAAISRSGFTYSADSVKGRFTISRDIANNTVYLQMNSLQPEDTAIYTCYAAYLDEFYNDYTHYWGLGTQVTVSS
B2: Nb9-20: Nanobody SEQ ID NO:11; M2 Gi mimetic (protein, listed as Lama glama)
VHH: QVQLQESGGGLVQPEGSLTLACDTSGFTMNYYAIAWFRQAPEKEREGLATISSIDGRTYYADSVKGRFTISRDSAKNMVYLQMNNLRPEDTAVYYCSAGPDYSDYGDESEYWGQGTQVTVSS
B3: clone B4: Nanobody SEQ ID NO:16; functional extracellular M2 nanobody ligand (protein, listed as Lama glama)
VHH: QVQLQESGGGLVQAGGSLRLSCAASGRTFSNYAMSWFRQAPGKERGLVATIYRSGEGTYYLPSAKGRFTVSRDNAKNTAYLQMNSLKAEDTAVYYCAVMSRGTWSMWGQGTQVTVSS
B4: Nb9-8: Nanobody SEQ ID NO:1; M2 Gi mimetic, active-state stabilizing, binds intracellular surface of M2 receptor (protein, listed as Lama glama)
VHH: QVQLQESGGGLVQAGDSLRLSCAASGFDFDNFDDYAIGWFRQAPGQEREGVSCIDPSDGSTIYADSAKGRFTISSDNAENTVYLQMNSLKPEDTAVYVCSAWTLFHSDEYWGQGTQVTVSS

Biological target: T1, human M2 muscarinic receptor
Assay: M2 receptor radioligand binding assay (3H N-methyl scopolamine, receptor reconstituted into HDL particles)
Settings: for enhancement of M2 receptor affinity for the agonist iperoxo: competition binding assay, iperoxo vs 3H N-methyl scopolamine, compared with G protein Gi
Excerpt: M2 muscarinic receptor expression and purification. The human M2 muscarinic receptor gene was modified to remove glycosylation sites, and to add an amino-terminal FLAG tag and a carboxy-terminal 8×His tag. In addition, residues 233-374 of intracellular loop 3 were deleted. […] Human M2 muscarinic receptor bearing an amino-terminal FLAG epitope tag and carboxy-terminal 8×His tag was expressed in Sf9 cells using the BestBac baculovirus system (Expression Systems; Davis, Calif.). Cells were infected at a density of 4×10^6 cells/mL, then incubated for two days at 27° C. Receptor was extracted and purified in the manner described previously for the M3 muscarinic receptor (Kruse et al., 2012). Briefly, receptor was first purified by Ni-NTA chromatography, FLAG affinity chromatography, then size exclusion chromatography. 1 μM atropine was included in all buffers. Receptor was then labeled with a 5-fold molar excess of biotin-NHS ester (Sigma-Aldrich; St. Louis, Mo.) in buffer containing 25 mM HEPES pH 7.2. Following a 30 minute incubation at room temperature and a 30 minute incubation on ice, unreacted label was quenched with 50 mM Tris pH 8. Directly labeled samples with fluorophore-NHS esters were prepared similarly. Receptor was then desalted into buffer containing either 10 μM tiotropium, 10 μM iperoxo, or buffer containing no ligand. Receptor eluted in buffer containing no ligand was treated with 50 μM iperoxo mustard (derivative of iperoxo that allows covalent binding to M2 receptor) for 20 minutes at room temperature. Samples were then concentrated, aliquoted, and flash frozen with 20% (v/v) glycerol.
M2 receptor radioligand binding assays. M2 receptor was expressed and purified, as described above. Receptor was then reconstituted into HDL particles consisting of apolipoprotein A1 and a 3:2 (mol:mol) mixture of the lipids POPC:POPG (1-palmitoyl-2-oleoyl-sn-glycero-3-phosphocholine: 1-palmitoyl-2-oleoyl-sn-glycero-3-phosphocholine and 1-hexadecanoyl-2-(9Z-octadecenoyl)-sn-glycero-3-phospho-(r-rac-glycerol), respectively, Avanti Polar Lipids). Binding reactions contained 50 fmol functional receptor, 0.6 nM 3H N-methyl scopolamine (NMS), 100 mM NaCl, 20 mM HEPES pH 7.5, 0.1% BSA, and ligands and nanobodies as indicated. Single point allosteric effects of nanobodies were measured in the presence of 10 nM iperoxo. Concentration-dependent effects of nanobodies were measured in the presence of 10 nM iperoxo. All reactions were 500 μL in volume. Reactions were mixed and then incubated for two hours. Samples were then filtered on a 48-well harvester (Brandel) onto a filter which had been pretreated with 0.1% polyethylenimine. All measurements were taken by liquid scintillation counting, and experiments were performed at least in triplicate.
To determine whether the Nanobody variants that specifically stain agonist-bound M2 receptor are able to stabilize the M2 receptor active state, a binding assay was performed. Due to the allosteric properties of GPCRs, molecules that stabilize the active conformation of a receptor also increase agonist affinity. Several conformationally specific binders were isolated and were tested for their ability to induce an increase in the affinity of the non-covalent agonist iperoxo.

| Molecule | enhancement of M2 receptor affinity for the agonist iperoxo | effect on binding of the radioligand N-methylscopolamine (allosteric binding properties) (single point, with and without agonist (10 nM iperoxo)) | EC50 (concentration-dependent effect of nanobody in the presence of 10 nM iperoxo, 0.6 nM 3H N-methyl scopolamine, read-out: EC50 of nanobody effect on agonist ability to displace a radioactive probe) [nM] | dose-dependent effect on agonist ability to displace a radioactive probe (in the presence of 10 nM iperoxo, 3H N-methyl scopolamine) |
| --- | --- | --- | --- | --- |
| B1 | confirmed to enhance agonist affinity |  |  |  |
| B2 | confirmed to enhance agonist affinity |  |  |  |
| B3 |  | decrease in the binding of the radioligand N-methylscopolamine only in the presence of agonist |  |  |
| B4 | confirmed to enhance agonist affinity; also recorded: enhanced the affinity of the M2 receptor for iperoxo to almost the same extent as that observed in the presence of the heterotrimeric G protein Gi; also recorded: substantial enhancement of iperoxo affinity |  | ~100 | dose-dependent effect |
